Reference: patent US20060110789

Key:
DEBS-2 = DEBS-2 (UniProt Q03132)
[1] = molecular target: diketide-ACP4(4) (DEBS ACP4 with its natural C-terminal linker, loaded with diketide) (UniProt Q03132)
[2] = molecular target: diketide-ACP4(Ø) (DEBS ACP4 without linker, loaded with diketide) (UniProt Q03132)
[3] = molecular target: diketide-ACP2(2) (DEBS ACP2 with its natural C-terminal linker, loaded with diketide) (UniProt Q03131)
[4] = molecular target: diketide-ACP2(4) (DEBS ACP2 with the C-terminal linker of module 4, loaded with diketide) (UniProt Q03131)

## ery M1-RAL rifM5+ERL
DEBS-2
  6-dEB production on co-transformation in S. coelicolor (with DEBS-3): Yes (dEB6)

## (3)M5+TE (module 5 of DEBS with the N-terminal linker of module 3, fused to thioesterase)
[1]
  kcat/KM, fold decrease against the matched reaction (FIG. 28 B): fell approximately 20-fold and 150-fold, respectively
  triketide lactone formation at 20 µM substrate (FIG. 28 B): transfer of diketide from the donor ACP to the acceptor module occurred at 20 µM substrate concentration
[2]
  kcat/KM (FIG. 29 B): 41.7 M⁻¹ s⁻¹

## (5)M5+TE (module 5 of DEBS with its own N-terminal linker, fused to thioesterase)
[3]
  triketide lactone formation at 20 µM substrate (FIG. 28 D): no product was detected at the same substrate concentrations
[4]
  kcat/KM, fold decrease against the matched reaction (FIG. 28 C): fell approximately 20-fold and 150-fold, respectively
  triketide lactone formation at 20 µM substrate (FIG. 28 C): transfer of diketide from the donor ACP to the acceptor module occurred at 20 µM substrate concentration
[1]
  conversion of acyl-ACP into triketide lactone in 1 h (20 µM 4, 1 µM (5)M5+TE): 70% of the acyl-ACP was converted into triketide lactone in 1 h
  elongation rate constant (kcat) with 4b, fold increase against the NAC thioester 2b: the elongation rate constant (kcat) increases at least 25-fold
  k60 µM (printed there as kcat/KM): kcat/KM values of 1.4 min-1 and 9.3 min^-1
  kcat/KM: kcat/KM values of 390 min^-1 mM^-1 and 290 min^-1mM^-1
  triketide lactone formation at 20 µM substrate (FIG. 28 A): transfer of diketide from the donor ACP to the acceptor module occurred at 20 µM substrate concentration
[2]
  kcat/KM (FIG. 29 A): 68.3 M⁻¹ s⁻¹

## (5)M6+TE (module 6 of DEBS with the N-terminal linker of module 5, with thioesterase)
[2]
  kcat/KM, fold decrease against diketide-ACP4(4) with the same module: the kcat/KM values drop approximately 70-300 fold
